# Data reported in patent publication US20250057951A1, “DISCERNIBLE CELL SURFACE PROTEIN VARIANTS OF CD117 FOR USE IN CELL THERAPY” (UNIVERSITÄT BASEL, priority 2021, published 2025).
# B1: Refmab #1-Bert: improved version of Refmab #1, VH SEQ ID 15, VL SEQ ID 63 (antibody, V domains shown)
# VH: QVQLQQPGAELVKPGASVKMSCKASGYTFTSYNMHWVKQTPGQGLEWIGVIYSGNGDTSYNQKFKGKATLTADKSSSTAYMQINSLTSEDSAVYYCARERDTRFGNWGQGTLVTVSA
# VL: EIVLTQSPSSLSASVGDRVTITCRASESVDIYGESFMHWYQQKPGKAPKLLIYLASNLESGVPSRFSGSGSGTDFTLTISSLQPEDFATYYCQQNKEEPYTFGQGTKLEIKRTV
# modifications: Refmab #1 VH
# Legend:
# [1] = system: CD117+ myeloid cells; test: Depletion experiment in NSG mice with E73K gene-edited HSPCs; format: in vivo; details: 25 mg/kg i.v. days 8, 10, 12, 14; 16 weeks; vs isotype control
# Description: In another experiment, NSG mice (Jackson Laboratories) were sub-lethally irradiated one day before injection with 1 Mio gene-edited HSPCs carrying a E73K variant of CD117. 8, 10, 12 and 14 days after cell injection mice received 25 mg/kg antibody Refmab #1-Bert or 25 mg/kg isotope control antibody i.v. per dose. 16 weeks later the mice were euthanized, and blood, spleen and bone marrow were analyzed by FACS.
# CD117+ myeloid cells were identified by FACS as live/hCD45+/CD33+/CD117+. […] Clone 104D2 was used as an expression control. Cells were classified as not edited (104D2+ and SR-1+) or E73K edited (104D2+ but SR-1−) based on double staining with anti-CD117 clone SR-1 and anti-CD117 clone 104D2.
# [2] = system: variants of CD117; test: Blocking of SCF-induced CD117 phosphorylation (Tyr719 ELISA), TF-1 cells with CD117 variants; format: cell-based, human; details: 0.5 μg/ml antibody 30 minutes; 100 ng/ml SCF 5 minutes; same for E73K, E73Y, S123F (data not shown)
# [3] = system: human HSCs; test: HSC depletion in NBSGW mice engrafted with human HSPCs; format: in vivo; details: 25 mg/kg i.v. days 8, 10, 12, 14; analysis 16 weeks later; vs isotype control; live/hCD45+/CD34+/CD38−/CD45RA−/CD90+
# Description: (§1) Depletion of human HSCs in mice using various mAbs was adapted from Pang et al. (Blood (2019) 133:2069-78).
# NBSGW mice (Jackson Laboratories) were injected with 1 Mio HSPCs. 8, 10, 12 and 14 days after cell injection mice received 25 mg/kg antibody Refmab #1-Bert per dose i.v. 16 weeks later the mice were euthanized and blood, spleen and bone marrow were analysed by FACS. […] HSCs were identified by FACS as live/hCD45+/CD34+/CD38−/CD45RA−/CD90+.
# [4] = system: CD117; test: Blocking of SCF-induced CD117 phosphorylation (Tyr719 ELISA), wild type TF-1 cells; format: cell-based, human; details: 0.5 ug/mL antibody or 500 nM avapritinib; 100 ng/ml SCF 5 minutes
# [5] = system: CD34+ progenitor cells; test: Additional HSC depletion experiment in NBSGW mice with edited HSPCs; format: in vivo; details: 4 mg/kg i.v. days 7, 9, 11, 12, 16 weeks, vs isotype control
# Description: as §1
# NBSGW mice (Jackson Laboratories) were injected with 1 Mio HSPCs from 2 different donors carrying a E73K, S123K or D121K variant of CD117. Control groups of mice received unedited electroporation control HSPCs. 7, 9, 11 and 12 days after cell injection mice received 4 mg/kg antibody Refmab #1-Bert per dose i.v. 16 weeks later the mice were euthanized and blood, spleen and bone marrow were analyzed by FACS. To identify unedited and edited cells the CD117-specific antibody clones 104D2 and SR-1 were used. […] Cells were classified as unedited (104D2+ and SR-1+) or edited (104D2+ but SR-1−) based on double staining with both anti-CD117 clones.
molecule,measurement,setting,value
B1,effect on E73K variant CD117+ myeloid cells in bone marrow,[1],enrichment of E73K variant cells
same,effect on unedited CD117+ myeloid cells in bone marrow,[1],depletion of unedited cells
same,"blocking of SCF-dependent CD117 phosphorylation, D121K and S123K variants",[2],unaffected
same,bone marrow HSC depletion,[3],in vivo depletion of HSCs
same,"blocking of SCF-induced phosphorylation, wild type cells",[4],blocked
same,"effect on E73K, D121K and S123K-edited cells",[5],"enrichment of E73K, D121K and S123K-edited variant cells"
same,effect on unedited CD34+ progenitor cells,[5]; live/hCD45+/CD34+/CD38−,depletion of unedited CD34+ progenitor cells
